Experimental data from the supplement of paper PMC10567573.

B1: RSPH3 (parent)
chain: QRLEEQERRHREEKERRKKQQWEI

Variants of: B1
Test: protein stability index of a GFP-peptide fusion (GPS, HEK-293T) (PSI 1-6); higher = more stable
Conditions: c terminus: a fixed tail appended
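Also: lentivirally expressed fusions sorted by FACS into six bins by GFP to DsRed ratio, PSI derived from sequencing read proportions per bin multiplied by bin number.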

| Variant | protein stability index |
| --- | --- |
| QRLEEQERRHREEFERRKKQQWEI [K14F] | 4.69 |
| QRLEEQERRHREEWERRKKQQWEI [K14W] | 4.45 |
| QRLEEQERRHREESERRKKQQWEI [K14S] | 3.26 |
| QRLEEQERRHREEMERRKKQQWEI [K14M] | 4.25 |
| QRLEEQERRHREERERRKKQQWEI [K14R] | 4.15 |
| QRLEEQERRHREEGERRKKQQWEI [K14G] | 5.25 |
| QRLEEQERRHREEQERRKKQQWEI [K14Q] | 4.26 |
| QRLEEQERRHREENERRKKQQWEI [K14N] | 4.87 |
| QRLEEQERRHREEKERRKKQQGEI [W22G] | 5.48 |
| QRLEEQERRHREEKERRKKQQVEI [W22V] | 5.34 |
| QRLEEQERRHREEKERRKKQQTEI [W22T] | 5.67 |
| QRLEEQERRHREEKERRKKQQEEI [W22E] | 5.75 |
| QRLEEQERRHREEKERRKKQQDEI [W22D] | 5.52 |
| QRLEEQERRHREEKERRKKQQIEI [W22I] | 4.38 |
| QRLEEQERRHREEKERRKKQQYEI [W22Y] | 4.88 |
| QRLEEQERRHREEKERRKKQQAEI [W22A] | 5.13 |
| QRLEEQERRHREEKERRKKQQFEI [W22F] | 4.97 |
| QRLEEQERRHREEKERRKKQQHEI [W22H] | 4.97 |
| QRLEEQERRHIEEKERRKKQQWEI [R11I] | 4.22 |
| QRLEEQERRHDEEKERRKKQQWEI [R11D] | 4.93 |
| QRLEEQERRHPEEKERRKKQQWEI [R11P] | 5.34 |
| QRLEEQERRHNEEKERRKKQQWEI [R11N] | 5.19 |
| QRLEEQERRHEEEKERRKKQQWEI [R11E] | 5.19 |
| QRLEEQERRHSEEKERRKKQQWEI [R11S] | 4.35 |

| Variant | protein stability index |
| --- | --- |
| QRLEEQERRHWEEKERRKKQQWEI [R11W] | 4.44 |
| QRLEEQERRHTEEKERRKKQQWEI [R11T] | 4.62 |
| QRLLEQERRHREEKERRKKQQWEI [E4L] | 4.46 |
| QRLGEQERRHREEKERRKKQQWEI [E4G] | 5.08 |
| QRLVEQERRHREEKERRKKQQWEI [E4V] | 3.99 |
| QRLTEQERRHREEKERRKKQQWEI [E4T] | 4.15 |
| QRLREQERRHREEKERRKKQQWEI [E4R] | 3.84 |
| QRLEEQERRHREEKWRRKKQQWEI [E15W] | 3.18 |
| QRLEEQERRHREEKKRRKKQQWEI [E15K] | 4.74 |
| QRLEEQERRHREEKYRRKKQQWEI [E15Y] | 3.09 |
| QRLEEQERRHREEKARRKKQQWEI [E15A] | 4.44 |
| QRLEEQERRHREEKVRRKKQQWEI [E15V] | 4.14 |
| QRLEEQERRHREEKIRRKKQQWEI [E15I] | 4.09 |
| QRLEEQERRHREEKPRRKKQQWEI [E15P] | 3.62 |
| QRLEEQERRHREEKQRRKKQQWEI [E15Q] | 4.85 |
| QRLEAQERRHREEKERRKKQQWEI [E5A] | 4.63 |
| QRLEPQERRHREEKERRKKQQWEI [E5P] | 4.42 |
| QRLECQERRHREEKERRKKQQWEI [E5C] | 4.38 |
| QRLEDQERRHREEKERRKKQQWEI [E5D] | 4.55 |
| QRLEFQERRHREEKERRKKQQWEI [E5F] | 3.61 |
| QRLELQERRHREEKERRKKQQWEI [E5L] | 4.44 |
| QRLEVQERRHREEKERRKKQQWEI [E5V] | 4.58 |
| QRLEKQERRHREEKERRKKQQWEI [E5K] | 3.39 |
| QRLESQERRHREEKERRKKQQWEI [E5S] | 4.5 |

| Variant | protein stability index |
| --- | --- |
| QRLEEQERRHRPEKERRKKQQWEI [E12P] | 4.07 |
| QRLEEQERRHRLEKERRKKQQWEI [E12L] | 4.42 |
| QRLEEQERRHRKEKERRKKQQWEI [E12K] | 3.58 |
| QRLEEQERRHRSEKERRKKQQWEI [E12S] | 3.99 |
| QRLEEQERRHRVEKERRKKQQWEI [E12V] | 4.5 |
| QRLEEQERRHRWEKERRKKQQWEI [E12W] | 2.58 |
| QRLEEQERRHRAEKERRKKQQWEI [E12A] | 4.84 |
| QRLEEQERRHRHEKERRKKQQWEI [E12H] | 4.03 |
| QRLEEQERRHRTEKERRKKQQWEI [E12T] | 4.28 |
| QRLEEQERRHRGEKERRKKQQWEI [E12G] | 4.36 |
| QRLEEQERRHREEKERRKKQEWEI [Q21E] | 5.39 |
| QRLEEQERRHREEKERRKKQCWEI [Q21C] | 4.17 |
| QRLEEQERRHREEKERRKKQGWEI [Q21G] | 4.61 |
| QRLEEQERRHREEKERRKKQYWEI [Q21Y] | 4.52 |
| QRLEEQERRHREEKERRKKQVWEI [Q21V] | 4.01 |
| QRLEEQERRHREEKERRKKQPWEI [Q21P] | 4.6 |
| QLLEEQERRHREEKERRKKQQWEI [R2L] | 4.63 |
| QMLEEQERRHREEKERRKKQQWEI [R2M] | 4.06 |
| QTLEEQERRHREEKERRKKQQWEI [R2T] | 5.02 |
| QGLEEQERRHREEKERRKKQQWEI [R2G] | 4.54 |
| QVLEEQERRHREEKERRKKQQWEI [R2V] | 4.47 |
| QRLEEQEMRHREEKERRKKQQWEI [R8M] | 3.7 |
| QRLEEQEHRHREEKERRKKQQWEI [R8H] | 4.57 |
| QRLEEQEPRHREEKERRKKQQWEI [R8P] | 5.03 |

| Variant | protein stability index |
| --- | --- |
| QRLEEQECRHREEKERRKKQQWEI [R8C] | 3.71 |
| QRLEEQEWRHREEKERRKKQQWEI [R8W] | 4.09 |
| QRLEEQEARHREEKERRKKQQWEI [R8A] | 4.86 |
| QRLEEQEIRHREEKERRKKQQWEI [R8I] | 4.42 |
| QRLEEQENRHREEKERRKKQQWEI [R8N] | 3.93 |
| QRLEEQEGRHREEKERRKKQQWEI [R8G] | 5.02 |
| QRLEEQERRAREEKERRKKQQWEI [H10A] | 4.94 |
| QRLEEQERRGREEKERRKKQQWEI [H10G] | 4.51 |
| QRLEEQERRVREEKERRKKQQWEI [H10V] | 4.45 |
| QRLEEQERRLREEKERRKKQQWEI [H10L] | 4.87 |
| QRLEEQERRNREEKERRKKQQWEI [H10N] | 5.08 |
| QRLEEQERRMREEKERRKKQQWEI [H10M] | 4.43 |
| QRLEEQERRSREEKERRKKQQWEI [H10S] | 4.53 |
| QRLEEQERRYREEKERRKKQQWEI [H10Y] | 4.05 |
| QRLEEQERREREEKERRKKQQWEI [H10E] | 5.26 |
| QRLEEQERRHREEKERRKKQQWYI [E23Y] | 4.09 |
| QRLEEQERRHREEKERRKKQQWPI [E23P] | 4.26 |
| QRLEEQERRHREEKERRKKQQWNI [E23N] | 4.19 |
| QRLEEQERRHREEKERRKKQQWMI [E23M] | 4.2 |
| QRLEEQERRHREEKERRKKQQWAI [E23A] | 3.51 |
| QRLEEQERRHREEKERRKKQQWII [E23I] | 3.6 |
| QRLEEQERRHREEKERRKKQQWWI [E23W] | 3.67 |
